In test [1] the target is β1 integrin chain on HT29 cells (α5 null line) (human) (UniProt P05556). Briefly: FACS on HT29 cells, isotype control.
For test [2], the target named is human α5β1 integrin (human) (UniProt P08648). As to the kind of experiment: FACS on human α5β1-transfected against untransfected 300.19 cells, negative control.
Test [3] shares this target. Briefly: FACS on human α5β1-transfected 300.19 cells, negative control.
A further test addresses Macaque α5β1 (Macaque). Briefly: FACS on macaque PBMC, isotype control.
In test [4] the target is macaque β1 integrin chain on T cells (Macaque). As to the kind of experiment: FACS on macaque PBMC, control antibody.
Test [5] has as its target β1 integrin chain on HT29 cells (α5 null line) (human) (UniProt P05556). Briefly: FACS on HT29 cells, positive control.
For test [6], the target named is macaque αV integrin chain on T cells (Macaque). Briefly: FACS on macaque PBMC, control antibody.
The target of test [7] is avb3 and avb5 integrins on A375M cells. Briefly: cell-based or functional assay.
The target of test [8] is αv integrin chain on HT29 cells (human) (UniProt P06756). Briefly: FACS on HT29 cells, positive control.
In test [9] the target is αvβ6 integrin on HT29 cells (human) (UniProt P06756). As to the kind of experiment: FACS on HT29 cells, positive control.
Test [10] concerns the target β1 integrin chain on HT29 cells (α5 null line) (human) (UniProt P05556). Briefly: FACS on HT29 cells (no α5, β1 present), control antibody to α5β1.

Sequence of human α5β1 integrin (human) (P08648 42-1049, chain 1 of 2): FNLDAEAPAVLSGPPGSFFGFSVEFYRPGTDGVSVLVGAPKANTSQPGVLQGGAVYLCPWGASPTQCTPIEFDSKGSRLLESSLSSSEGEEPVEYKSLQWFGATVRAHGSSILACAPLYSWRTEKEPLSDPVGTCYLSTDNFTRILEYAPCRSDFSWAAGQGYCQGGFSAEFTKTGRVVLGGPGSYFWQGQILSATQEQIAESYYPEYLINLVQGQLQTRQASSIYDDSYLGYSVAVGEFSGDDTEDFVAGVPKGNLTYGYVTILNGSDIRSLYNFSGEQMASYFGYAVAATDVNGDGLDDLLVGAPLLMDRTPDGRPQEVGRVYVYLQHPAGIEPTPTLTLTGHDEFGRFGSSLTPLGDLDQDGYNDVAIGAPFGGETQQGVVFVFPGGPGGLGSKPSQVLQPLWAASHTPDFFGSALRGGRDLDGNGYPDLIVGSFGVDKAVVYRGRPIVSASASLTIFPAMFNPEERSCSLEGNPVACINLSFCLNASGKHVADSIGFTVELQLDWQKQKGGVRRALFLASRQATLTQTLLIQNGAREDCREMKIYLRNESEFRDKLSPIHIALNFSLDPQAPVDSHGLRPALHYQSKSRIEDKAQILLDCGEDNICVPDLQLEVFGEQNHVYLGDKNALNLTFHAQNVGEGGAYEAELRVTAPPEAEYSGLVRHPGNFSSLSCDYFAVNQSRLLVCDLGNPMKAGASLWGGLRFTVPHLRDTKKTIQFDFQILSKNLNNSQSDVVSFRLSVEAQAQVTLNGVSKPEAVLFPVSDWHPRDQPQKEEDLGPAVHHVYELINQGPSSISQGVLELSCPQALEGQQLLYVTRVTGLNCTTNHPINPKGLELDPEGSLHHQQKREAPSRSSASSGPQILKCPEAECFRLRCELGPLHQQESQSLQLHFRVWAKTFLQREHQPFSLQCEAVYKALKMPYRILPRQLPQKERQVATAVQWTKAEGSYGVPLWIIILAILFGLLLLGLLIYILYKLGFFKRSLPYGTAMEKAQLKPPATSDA
Sequence of human α5β1 integrin (human) (P05556 21-798, chain 2 of 2, further chain): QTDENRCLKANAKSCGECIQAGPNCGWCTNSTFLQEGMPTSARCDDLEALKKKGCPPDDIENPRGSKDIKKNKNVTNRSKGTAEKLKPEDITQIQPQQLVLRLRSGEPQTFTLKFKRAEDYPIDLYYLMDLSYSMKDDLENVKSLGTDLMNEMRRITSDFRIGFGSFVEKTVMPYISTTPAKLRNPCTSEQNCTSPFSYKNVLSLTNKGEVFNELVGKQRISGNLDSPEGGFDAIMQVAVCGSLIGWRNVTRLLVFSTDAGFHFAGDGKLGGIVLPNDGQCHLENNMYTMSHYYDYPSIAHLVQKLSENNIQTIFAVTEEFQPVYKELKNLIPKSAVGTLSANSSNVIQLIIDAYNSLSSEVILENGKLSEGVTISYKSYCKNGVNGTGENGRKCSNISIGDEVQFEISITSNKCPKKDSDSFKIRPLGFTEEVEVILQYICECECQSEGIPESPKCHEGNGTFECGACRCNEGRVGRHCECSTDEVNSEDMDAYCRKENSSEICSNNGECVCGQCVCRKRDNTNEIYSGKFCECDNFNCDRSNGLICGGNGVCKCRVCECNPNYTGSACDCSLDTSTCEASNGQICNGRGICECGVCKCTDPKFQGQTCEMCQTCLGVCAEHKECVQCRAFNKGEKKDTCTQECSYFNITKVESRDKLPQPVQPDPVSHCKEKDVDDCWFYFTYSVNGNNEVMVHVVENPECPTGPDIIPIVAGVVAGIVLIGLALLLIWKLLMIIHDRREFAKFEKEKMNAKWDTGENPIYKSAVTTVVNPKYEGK
Sequence of β1 integrin chain on HT29 cells (α5 null line) (human) (P05556 21-798): as the sequence (P05556 21-798, chain 2 of 2, further chain) above
Sequence of αvβ6 integrin on HT29 cells (human) (P06756 31-1048, chain 1 of 2): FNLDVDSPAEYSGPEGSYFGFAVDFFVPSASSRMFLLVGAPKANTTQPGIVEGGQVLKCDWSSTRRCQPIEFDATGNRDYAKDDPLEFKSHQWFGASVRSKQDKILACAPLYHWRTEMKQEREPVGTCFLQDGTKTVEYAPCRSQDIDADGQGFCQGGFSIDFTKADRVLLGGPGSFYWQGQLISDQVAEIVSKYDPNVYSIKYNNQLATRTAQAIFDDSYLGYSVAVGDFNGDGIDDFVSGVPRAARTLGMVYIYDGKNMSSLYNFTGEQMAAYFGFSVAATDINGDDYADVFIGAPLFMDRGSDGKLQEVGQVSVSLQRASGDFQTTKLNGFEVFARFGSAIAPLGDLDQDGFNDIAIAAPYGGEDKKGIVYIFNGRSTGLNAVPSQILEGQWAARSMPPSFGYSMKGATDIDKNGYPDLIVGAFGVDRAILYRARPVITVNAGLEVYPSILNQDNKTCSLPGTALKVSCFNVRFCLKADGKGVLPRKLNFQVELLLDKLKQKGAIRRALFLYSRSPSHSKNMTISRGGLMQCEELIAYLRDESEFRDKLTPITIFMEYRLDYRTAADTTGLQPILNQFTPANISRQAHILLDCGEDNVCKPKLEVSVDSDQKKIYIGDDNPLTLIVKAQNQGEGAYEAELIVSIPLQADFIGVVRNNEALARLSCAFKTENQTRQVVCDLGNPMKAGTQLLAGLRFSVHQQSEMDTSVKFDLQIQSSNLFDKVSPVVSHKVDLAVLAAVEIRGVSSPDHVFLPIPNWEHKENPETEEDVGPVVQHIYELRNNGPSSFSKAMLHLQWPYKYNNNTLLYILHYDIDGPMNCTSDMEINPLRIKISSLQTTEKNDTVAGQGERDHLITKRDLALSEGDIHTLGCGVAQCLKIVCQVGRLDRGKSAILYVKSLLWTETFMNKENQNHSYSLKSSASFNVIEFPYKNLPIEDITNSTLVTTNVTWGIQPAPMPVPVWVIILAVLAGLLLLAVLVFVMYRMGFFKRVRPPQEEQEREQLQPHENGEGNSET
Sequence of αvβ6 integrin on HT29 cells (human) (P18564 22-788, chain 2 of 2, further chain): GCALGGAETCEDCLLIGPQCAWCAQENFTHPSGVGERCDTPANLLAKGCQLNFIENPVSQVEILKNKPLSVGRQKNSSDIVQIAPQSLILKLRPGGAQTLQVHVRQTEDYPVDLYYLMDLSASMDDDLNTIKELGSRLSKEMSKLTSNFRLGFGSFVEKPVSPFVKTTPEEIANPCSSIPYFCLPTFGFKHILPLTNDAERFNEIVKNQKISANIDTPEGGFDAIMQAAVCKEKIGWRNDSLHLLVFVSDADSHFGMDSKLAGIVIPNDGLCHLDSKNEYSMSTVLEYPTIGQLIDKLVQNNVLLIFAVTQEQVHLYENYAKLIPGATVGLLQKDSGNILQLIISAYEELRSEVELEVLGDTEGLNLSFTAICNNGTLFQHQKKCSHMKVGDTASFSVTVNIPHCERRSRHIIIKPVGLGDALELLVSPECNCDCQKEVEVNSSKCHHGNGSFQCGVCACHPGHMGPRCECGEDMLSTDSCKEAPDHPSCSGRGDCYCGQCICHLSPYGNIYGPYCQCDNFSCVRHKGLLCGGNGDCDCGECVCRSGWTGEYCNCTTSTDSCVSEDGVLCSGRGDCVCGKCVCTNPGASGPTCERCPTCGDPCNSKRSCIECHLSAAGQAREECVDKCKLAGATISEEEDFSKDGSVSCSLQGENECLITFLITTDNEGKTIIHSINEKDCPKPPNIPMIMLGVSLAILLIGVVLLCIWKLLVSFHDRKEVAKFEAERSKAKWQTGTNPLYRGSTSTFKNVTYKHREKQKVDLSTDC
Sequence of αv integrin chain on HT29 cells (human) (P06756 31-1048): as the sequence (P06756 31-1048, chain 1 of 2) above

Human IgG2 (antibody) gave a Binding Geomean in [1] of 2.84. The Ratio (α5β1 expressing cells / parental cells) in [2] was found to be 0.8. In [3], the X Geo Mean is 12.
In the test with Macaque α5β1 (Macaque), Human IgG2/4 came in with a Geo Mean on Macaque T-cells IgG detection of 3.
Substance 4b4 anti beta1 (antibody) registered a Geo Mean on Macaque T-cells IgG detection in test [4] of 141. Further, the Binding Geomean in [5] worked out at 362.
L230 (antibody) came in with a Geo Mean on Macaque T-cells IgG detection in test [6] of 3. In test [7], this substance yielded an Osteopontin Adhesion (% inhibition) at 5 ug/ml, A375M cells of 97% and a Vitronectin Adhesion (% inhibition) at 5 ug/ml, A375M cells of 96%. The substance also gave a Binding Geomean in test [8] of 294.
MAB2077Z avb6 (antibody) yielded a Binding Geomean in test [9] of 39.2.
Mouse IgG2a (antibody) returned a Binding Geomean in test [1] of 10.2.
Same read-out and setting: the result for Human IgG4 (antibody) reads 3.2.
Take mAb 1969 (antibody): the Binding Geomean in [10] came to 2.69.
On to Mouse IgG1 (antibody), for which the Binding Geomean in [1] is 2.55. The Ratio (α5β1 expressing cells / parental cells) in test [2] came out at 0.9. The substance also came in with a X Geo Mean in test [3] of 14.9. For the same substance, the Geo Mean on Macaque T-cells IgG detection in the test with Macaque α5β1 (Macaque) came out at 2.
